Source: US20240182596A1 (TUBULIS, published 2024)

What was measured:
[1] = target: T1, recombinant human FcγRI (FcγR-SmBiT, Lumit assay) (human, UniProt P12314 16-292); assay: Lumit FcγRI Binding Immunoassay (Promega), competition with Tracer-LgBiT for FcγRI-SmBiT, n=1
T1 construct: Kit reagent (Promega); also called FcγRI (CD64); not shown: SmBiT label of the kit

[2] = target: T2, recombinant hexameric C1q complement protein (human) (human, UniProt P02745 23-245; P02746 28-253; P02747 29-245); assay: HTRF Human C1q Binding Kit (Cisbio), HTRF ratio at 70 nM antibody with the diluent-only background subtracted
T2 construct: also called complement factor C1q

FcγRIIIa (CD16) (V158) = target: T3, FcγRIIIa (CD16) (V158) (Homo sapiens, UniProt P08637); assay: Lumit FcγRIIIa (V158) Binding Immunoassay (Promega), left panel FcγRIIIa (CD16) (V158), competition with Tracer-LgBiT, n=1
T3 construct: m21 joins both polymorphic variants; also called V158 variant of m21

FcγRIIa (CD32) (H131) = target: T4, FcγRIIa (CD32) (H131) (Fused to the SmBiT luciferase fragment (Promega Lumit reagent), not carried in the letters); assay: Lumit FcγRIIa (H131) Binding Immunoassay (Promega), left panel FcγRIIa (CD32) (H131), competition with Tracer-LgBiT, n=1
T4 construct: m20 joins both polymorphic variants; also called H131 variant of m20; not shown: SmBiT tag (and any linker or purification tag) of Promega's FcγR-SmBiT fusion
T4 chain: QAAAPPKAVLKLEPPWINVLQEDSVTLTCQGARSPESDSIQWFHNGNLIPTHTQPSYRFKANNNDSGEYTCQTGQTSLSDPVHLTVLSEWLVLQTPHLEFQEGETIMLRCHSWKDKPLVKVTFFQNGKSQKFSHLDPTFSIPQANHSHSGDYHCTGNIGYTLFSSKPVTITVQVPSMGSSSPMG

[3] = target: T5, recombinant human FcRn (FcγRn-SmBiT, Lumit assay) (human, UniProt P55899 24-297; P61769 21-119); assay: Lumit FcRn Binding Immunoassay (Promega), competition with Tracer-LgBiT for FcRn-SmBiT, n=1
T5 construct: Kit reagent (Promega); not shown: SmBiT label of the kit

[4] = target: T6, HEK293 rat-NaPi2B-mCherry (Rattus norvegicus, UniProt Q9JJ09); assay: flow cytometry on HEK293 cells stably expressing rat full-length NaPi2b-mCherry, Alexa-dye anti-human IgG H+L secondary antibody, MFI ratio, one-site specific binding fit; the Kd table prints no unit, the concentration axis is in nM
T6 construct: full-length mCherry fusion stably expressed on HEK293 cells; also called rat full-length NaPi2b-mCherry on HEK293 cells
T6 sequence (target on cells, looked up): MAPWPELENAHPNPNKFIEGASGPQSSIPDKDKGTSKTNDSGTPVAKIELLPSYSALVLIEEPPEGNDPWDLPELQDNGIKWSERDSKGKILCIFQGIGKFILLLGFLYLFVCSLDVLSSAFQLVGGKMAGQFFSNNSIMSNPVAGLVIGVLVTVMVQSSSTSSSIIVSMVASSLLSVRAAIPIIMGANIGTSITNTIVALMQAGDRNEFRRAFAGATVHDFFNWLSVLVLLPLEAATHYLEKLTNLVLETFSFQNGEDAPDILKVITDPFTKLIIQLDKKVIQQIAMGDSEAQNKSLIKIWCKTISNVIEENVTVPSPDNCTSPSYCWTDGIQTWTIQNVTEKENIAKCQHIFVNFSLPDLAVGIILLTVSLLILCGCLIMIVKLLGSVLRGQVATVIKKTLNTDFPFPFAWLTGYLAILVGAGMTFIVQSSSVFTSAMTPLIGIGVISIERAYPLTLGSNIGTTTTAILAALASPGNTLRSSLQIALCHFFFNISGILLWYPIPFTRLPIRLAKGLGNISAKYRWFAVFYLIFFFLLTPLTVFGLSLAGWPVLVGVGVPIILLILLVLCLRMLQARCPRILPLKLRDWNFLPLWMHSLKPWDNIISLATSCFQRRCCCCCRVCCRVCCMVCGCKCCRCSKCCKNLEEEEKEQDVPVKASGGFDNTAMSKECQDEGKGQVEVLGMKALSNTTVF

[5] = target: T7, human Napi2b-mCherry on HEK293 cells (human, UniProt O95436 1-690); assay: flow cytometry on HEK293 cells stably expressing human full-length NaPi2b-mCherry, Alexa-dye anti-human IgG H+L secondary antibody, MFI ratio, one-site specific binding fit; the Kd table prints no unit, the concentration axis is in nM
T7 construct: also called Napi2b (SLC34A2); HEK293 cells overexpressing Napi2b
T7 sequence: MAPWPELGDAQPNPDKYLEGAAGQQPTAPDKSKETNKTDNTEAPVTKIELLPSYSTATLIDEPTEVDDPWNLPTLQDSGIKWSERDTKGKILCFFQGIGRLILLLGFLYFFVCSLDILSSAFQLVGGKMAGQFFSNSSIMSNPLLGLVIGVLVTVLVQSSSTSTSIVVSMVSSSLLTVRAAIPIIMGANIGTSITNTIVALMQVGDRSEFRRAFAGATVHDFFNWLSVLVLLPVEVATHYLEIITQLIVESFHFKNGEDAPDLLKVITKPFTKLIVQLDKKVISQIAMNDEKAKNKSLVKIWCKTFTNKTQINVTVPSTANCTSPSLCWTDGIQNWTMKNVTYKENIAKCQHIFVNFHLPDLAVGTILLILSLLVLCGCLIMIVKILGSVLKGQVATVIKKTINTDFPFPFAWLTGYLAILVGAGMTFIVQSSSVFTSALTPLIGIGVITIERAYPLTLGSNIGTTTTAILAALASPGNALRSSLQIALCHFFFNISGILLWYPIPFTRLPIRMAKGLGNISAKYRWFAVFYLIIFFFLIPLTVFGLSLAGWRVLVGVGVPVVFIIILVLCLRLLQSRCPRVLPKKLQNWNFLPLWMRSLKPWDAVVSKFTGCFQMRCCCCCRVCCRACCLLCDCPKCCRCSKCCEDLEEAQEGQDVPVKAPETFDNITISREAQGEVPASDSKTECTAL

[6] = target: T8, purified recombinant human Napi2b antigen consisting of Napi2b-extracellular-loop2 expressed as … (human, UniProt O95436 234-362, limits assumed); assay: ELISA on immobilized recombinant human Napi2b extracellular loop 2-Fc-6-His, HRP anti-human kappa detection
T8 construct: Expressed in Expi-HEK293 cells; also called immobilized human NaPi2B; not shown: Fc part; 6-His tag
T8 sequence: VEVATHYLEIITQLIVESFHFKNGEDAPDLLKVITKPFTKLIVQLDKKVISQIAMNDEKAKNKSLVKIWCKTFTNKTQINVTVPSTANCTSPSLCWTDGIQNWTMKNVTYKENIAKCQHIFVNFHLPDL

[7] = target: T7, human Napi2b-mCherry on HEK293 cells; assay: flow cytometry on HEK293 cells stably expressing human full-length NaPi2b-mCherry, Alexa-dye anti-human IgG H+L secondary antibody, MFI ratio, one-site specific binding fit; the Kd table prints no unit, the concentration axis is in nM; second experiment on human cells, run beside the rat cells of FIG. 3D
[8] = target: T8, purified recombinant human Napi2b …; assay: ELISA, coated Napi2b-extracellular-loop2-Fc-6-His, apparent KD from one-site fit
[9] = target: T8, purified recombinant human Napi2b …; assay: ELISA on the isolated immobilized protein; table column Binding KD (nmol/L), ELISA
[10] = target: T9, human NaPi2b on NaPi2b-positive cell lines OVCAR-3 and HCC-78 (human, UniProt O95436 1-690); assay: flow cytometry on OVCAR-3 cells; table column Binding KD (nmol/L), FACS (OVCAR-3)
T9 construct: Endogenous protein
T9 sequence: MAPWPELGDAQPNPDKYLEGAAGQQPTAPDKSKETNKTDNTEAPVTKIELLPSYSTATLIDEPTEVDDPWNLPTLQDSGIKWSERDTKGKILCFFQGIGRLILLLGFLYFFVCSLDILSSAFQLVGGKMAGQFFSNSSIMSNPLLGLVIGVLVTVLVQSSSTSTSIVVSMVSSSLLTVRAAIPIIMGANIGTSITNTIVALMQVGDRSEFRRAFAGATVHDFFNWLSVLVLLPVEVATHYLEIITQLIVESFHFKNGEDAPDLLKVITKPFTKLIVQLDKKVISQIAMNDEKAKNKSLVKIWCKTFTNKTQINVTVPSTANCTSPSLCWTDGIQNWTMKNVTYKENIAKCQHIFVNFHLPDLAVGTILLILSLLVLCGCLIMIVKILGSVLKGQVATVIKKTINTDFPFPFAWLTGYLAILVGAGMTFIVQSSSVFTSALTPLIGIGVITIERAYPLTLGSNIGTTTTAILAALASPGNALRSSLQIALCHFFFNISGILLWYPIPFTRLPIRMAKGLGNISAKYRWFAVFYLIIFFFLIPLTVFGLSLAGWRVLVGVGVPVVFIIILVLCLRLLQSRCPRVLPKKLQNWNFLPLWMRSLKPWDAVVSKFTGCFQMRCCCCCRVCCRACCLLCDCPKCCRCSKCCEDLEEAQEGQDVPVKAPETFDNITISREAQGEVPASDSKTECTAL

[11] = target: T10, HEK293 cyno-NaPi2B-mCherry (Macaca fascicularis, UniProt A0A2K5UHY1); assay: flow cytometry on HEK293 cells stably expressing cynomolgus full-length NaPi2b-mCherry, Alexa-dye anti-human IgG H+L secondary antibody, MFI ratio, one-site specific binding fit; the Kd table prints no unit, the concentration axis is in nM
T10 construct: full-length mCherry fusion stably expressed on HEK293 cells; also called cynomolgus full-length NaPi2b-mCherry on HEK293 cells
T10 sequence (target on cells): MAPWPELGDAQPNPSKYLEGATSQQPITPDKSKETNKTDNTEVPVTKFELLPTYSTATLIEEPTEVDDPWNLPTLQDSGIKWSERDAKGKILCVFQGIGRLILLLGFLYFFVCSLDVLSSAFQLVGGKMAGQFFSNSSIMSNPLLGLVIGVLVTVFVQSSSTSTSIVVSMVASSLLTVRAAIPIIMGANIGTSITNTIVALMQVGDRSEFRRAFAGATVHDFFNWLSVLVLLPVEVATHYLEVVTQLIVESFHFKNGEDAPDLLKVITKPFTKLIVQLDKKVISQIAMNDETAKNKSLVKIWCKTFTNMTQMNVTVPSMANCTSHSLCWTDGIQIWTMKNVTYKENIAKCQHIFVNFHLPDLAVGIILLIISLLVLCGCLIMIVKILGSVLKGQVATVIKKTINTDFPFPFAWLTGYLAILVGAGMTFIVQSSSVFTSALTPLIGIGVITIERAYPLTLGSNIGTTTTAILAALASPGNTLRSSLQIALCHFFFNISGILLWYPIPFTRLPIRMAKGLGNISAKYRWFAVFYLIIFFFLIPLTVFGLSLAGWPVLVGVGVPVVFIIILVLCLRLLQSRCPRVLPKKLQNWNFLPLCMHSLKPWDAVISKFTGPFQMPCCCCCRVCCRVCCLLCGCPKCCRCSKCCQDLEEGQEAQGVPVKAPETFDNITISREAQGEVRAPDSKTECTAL

B1: Fc-wildtype AV25 (AV25 HC-wt) (antibody)
heavy: not shown
light: DIQMTQSPSSLSASVGDRVTITCSASQDIGNFLNWYQQKPGKTVKVLIYYASSLYSGVPSRFSGSGSGTDYTLTISSLQPEDFATYYCQQYSKLPLTFGQGTKLELKRTVAAPSVFIFPPSDEQLKSGTASVVCLLNNFYPREAKVQWKVDNALQSGNSQESVTEQDSKDSTYSLSSTLTLSKADYEKHKVYACEVTHQGLSSPVTKSFNRGEC
notes: IgG1 with wild-type Fc (L234, L235); also called AV25-wt
For B1, which “IC50 (read off the curve)” value [1] is on record?
The value was about 0.02 µg/mL.

Does B1 bind [2]?
Result: binds

What about the “IC50 (read off the curve)” value (FcγRIIIa (CD16) (V158)) of the same binder?
Its value is about 2 µg/mL.

And the “IC50 (read off the curve)” value (FcγRIIa (CD32) (H131))?
The value was about 1 µg/mL.

What about the “IC50 (read off the curve)” value [3] of the same binder?
Its value is about 3 µg/mL.

B2: parental mAb (parental anti-NaPi2b antibody) (antibody, human IgG1, kappa, L234A L235A, V domains shown)
VH: EVQLVQSGAEVVKPGASVKMSCKASGYTFTGYNIHWVKQAPGQGLEWIGAIYPGNGDTSYKQKFRGRATLTADTSTSTVYMELSSLRSEDSAVYYCARGETARATFAYWGQGTLVTVSS
VL: DIQMTQSPSSLSASVGDRVTITCSASQDIGNFLNWYQQKPGKTVKVLIYYTSSLYSGVPSRFSGSGSGTDYTLTISSLQPEDFATYYCQQYSKLPLTFGQGTKLELKR
notes: also called parental antibody
Which results are given for B2?
Kd [4]: 6.88 nM; Kd [5]: 5.43 nM; EC50 (read off the curve) [6]: ~0.02 µg/mL; Kd [7]: 2.85 nM; Kd [8]: 0.0221 µg/mL; Kd [9]: 0.147 nM; Kd [10]: 10.8 nM; Kd [11]: 4.48 nM
